How the values were obtained:
puroindoline A [1] = biological target: T1, puroindoline A (Triticum aestivum, UniProt P33432 29-148); experiment: SPR; (PQQPY)8 covalently bound to a CM5 chip; PINA 2 to 20 μM flowed over, 25°C, Hepes buffer pH 7.4; steady-state fit, 1:1 Langmuir model; details: both partners purified
T1 construct: puroindoline A (PINA) of Triticum aestivum cv; Recital, purified from grain; about 13 kDa, five disulfide bonds, tryptophan-rich domain; The Pina allele of cv; The preparation probably holds several C-terminally processed forms; also called PINA
T1 sequence (looked up): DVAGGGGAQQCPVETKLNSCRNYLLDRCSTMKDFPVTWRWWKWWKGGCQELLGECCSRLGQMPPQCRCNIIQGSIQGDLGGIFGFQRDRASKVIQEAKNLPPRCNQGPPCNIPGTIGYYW

puroindoline A [2] = biological target: T1, puroindoline A; experiment: SPR; α-gliadin, γ-gliadin or (PQQPY)8 covalently bound to a CM5 chip (EDC/NHS, 10 mM acetate pH 4.7); PINA flowed over at 10 μL/min, 25°C, 10 mM Hepes pH 7.4, 150 mM NaCl, 3.4 mM EDTA, 0.005% P20; global kinetic fit, 1:1 Langmuir model; details: both partners purified

B1: recombinant polypeptide (PQQPY)8 (peptide)
chain: PQQPYPQQPYPQQPYPQQPYPQQPYPQQPYPQQPYPQQPY
notes: written out from '(PQQPY)8'; measured mass 4924.5 Da, theoretical 4924.3 Da; The fusion is printed as thioredoxin-DP-(PQQPY)8 and was cut in formic acid; The printed theoretical mass of 4924.3 Da fits 40 residues (eight repeats, monoisotopic) without a further proline; also called (Pro-Gln-Gln-Pro-Tyr)8; spr8; source: BLR strain, pETb32 vector, thioredoxin fusion; not shown: thioredoxin, …
Which results are given for B1?
Kd (puroindoline A [1]): 7.22 ± 2.8 µM; Kd (puroindoline A [2]): 0.29 ± 0.005 µM; koff (puroindoline A [2]): 0.0015 ± 0.1 s⁻¹; kon (puroindoline A [2]): 5000 ± 0.03 M⁻¹ s⁻¹
